Laboratory results published in patent JP2007501612A (dated 2007).

Tests used:
[1] = biological target: T1, mutant peptide Gln117Ala LDLSDNAALRVVDPTT (rat); test: ELISA, peptide on MaxiSorp plate, serial dilution of 7E11
T1 construct: also called Gla117Ala (so in the source)
T1 peptide: LDLSDNAALRVVDPTT

[2] = biological target: T2, mutant peptide Arg119His LDLSDNAQLHVVDPTT (rat); test: as above
T2 peptide: LDLSDNAQLHVVDPTT

[3] = biological target: Nogo receptor-1 (species and form not stated); test: method not given
sNogoR344-Fc = biological target: T3, sNogoR344-Fc (rat, UniProt Q99M75 26-344); test: SPA bead competition: inhibition of 125I-Nogo66 binding to immobilised sNogoR344-Fc
T3 construct: also called Fc-sNogoR344; Ig-sNogoR344; not shown: hinge region and Fc region of rat IgG1
T3 chain: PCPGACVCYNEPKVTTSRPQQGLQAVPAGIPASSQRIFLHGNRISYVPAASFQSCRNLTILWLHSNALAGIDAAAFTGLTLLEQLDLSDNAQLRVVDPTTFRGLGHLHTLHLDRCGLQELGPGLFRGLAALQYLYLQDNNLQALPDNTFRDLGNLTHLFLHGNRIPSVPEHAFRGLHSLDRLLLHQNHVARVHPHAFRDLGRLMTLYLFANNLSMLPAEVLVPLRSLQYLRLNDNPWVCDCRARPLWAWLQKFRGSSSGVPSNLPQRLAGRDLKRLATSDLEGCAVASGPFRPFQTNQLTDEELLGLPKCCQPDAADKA

fold increase of EC50 against the original peptide [1]: 30 fold
fold increase of EC50 against the original peptide [2]: 25 fold
Kd [3]: 100 nM
IC50 (sNogoR344-Fc): 400 nM
B1: monoclonal antibody 7E11 (antibody, V domains shown)
VH: VQLQESGAELVMPGASVKMSCKASGYTFTDYWMHWVKQRPGQGLEWIGAIDPSDSYSSYNQNFKGKATLTVDGSSSTAYMQLSSLTSEDSAVYYCARRITEAGAWFAYWGQGTTVT
VL: DVVMTQTPLSLPVSLGDQASISCRSSQSLVHSNGNTYLHWYLQKPGQSPKLLIYKVSNRFSGVPDRFSGSGSGTDFTLKISRVDAEDLGVYFCSQSTHVPFTFGGGTKLEIKR
